According to PMC2917276 (Acta Crystallographica Section D: Biological Crystallography, 2010):
Where a chain is given by its changes, count along the chain named.

B1: C836 Fab (Fab, V domains shown)
VH: QVTLKESGPGILQPSQTLSLTCSFSGFSLSTYGMGVGWIRQPSGKGLEWLAHIWWDDVKRYNPALKSRLTISKDTSGSQVFLKIASVDTSDTATYYCARMGSDYDVWFDYWGQGTLVTVSA
VL: DVQITQSPSYLAASPGETITLNCRASKSISKYLAWYQEKPGKTNKLLIYSGSTLQSGIPSRFSGSGSGTDFTLTISSLEPEDFAMYFCQQHNEYPYTFGGGTKLEIK
notes: mouse VH of hybridoma mAb C836 joined to the human G1 constant region (Fab part); mouse VL of hybridoma mAb C836 joined to the human kappa constant region; Chimeric Fab; also called His-tagged C836 Fab
B2: H2L6 Fab (Fab, V domains shown)
VH: QVTLKESGPVLVKPTETLTLTCTVSGFSLSTYGMGVGWIRQPPGKALEWLAHIWWDDVKRYNPALKSRLTISKDTSKSQVVLTMTNMDPVDTATYYCARMGSDYDVWFDYWGQGTLVTVSS
VL: EIVLTQSPATLSLSPGERATLSCRASKSISKYLAWYQQKPGQAPRLLIYSGSTLQSGIPARFSGSGSGTDFTLTISSLEPEDFAVYYCQQHNEYPYTFGQGTKLEIK
notes: humanized version of C836 (CDRs grafted into human variable framework segments), human G1 constant domain; humanized version of C836 (CDRs grafted into human variable framework segments), human kappa constant domain
B3: M1295 Fab (Fab, V domains shown)
VH: B2 VH with M34V, M100L
VL: EIVLTQSPATLSLSPGERATLSCRASKSISKYLAWYQQKPGQAPRLLIYSGSTLQSGIPARFSGSGSGTDFTLTISSLEPEDFAVYYCQQHDYPYTFGQGTKLEIK
notes: human G1 constant domain; human kappa constant domain

Biological target: T1, Recombinant human IL-13 (human, UniProt P35225)
T1 construct: interleukin-13, human, recombinant; source: bought: R&D Systems (catalog No. 213-IL/CF), reconstituted in PBS pH 7.4
T1 sequence (P35225 35-143): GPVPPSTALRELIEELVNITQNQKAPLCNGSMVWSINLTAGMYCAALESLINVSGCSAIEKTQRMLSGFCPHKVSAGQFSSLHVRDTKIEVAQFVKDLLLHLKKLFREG
Assay: SEC; Fab mixed with IL-13 at a Fab:IL-13 molar ratio of 1:1.2, 20 min at 277 K; Superdex 200 10/300 in 20 mM HEPES pH 7.5, 0.1 M NaCl; elution compared with the free Fab
Conditions: both partners purified

Binding result, binds:
B1
B2
B3
